From patent US20220025008A1 (FAPON BIOTECH, published 2022)
Numbering of substitutions follows the chain as printed.

T1: Recombinant NT antigen (N-terminal pro-brain natriuretic peptide, NT-proBNP) (human, UniProt P16860 27-102)
T1 construct: domain: N-terminal pro-brain natriuretic peptide (NT-proBNP); also called recombinant NT protein; N-terminal pro-B-type natriuretic peptide
T1 sequence (looked up): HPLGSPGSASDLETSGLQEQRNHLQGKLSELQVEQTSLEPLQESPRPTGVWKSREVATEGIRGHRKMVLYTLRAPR

B1: Mutation 1 (antibody, V domains shown)
VH: QVRLQESGPSQVKPAQTLSLTCAISGFSITTYYIDWVRHTPGKPPEWLAQMTKDGNAVHQPTIRSRLSITRDTSKSQVFLKLTGVTTEDTAVYYCVRGIIDWGPGLLVTVSS
VL: QAVLTQPSSVSRSLGQTVSITCSGSSDQVGFGDYVNWFQLIPGSAPKTLIFGATSRIRGVPDRFSGSRSGNTATLTINSLQAEDEADYYCGSPNSRGGYVFGSGTRLTVLS
notes: also called mutant 1 antibody
B2: WT 1-5 (antibody)
heavy: QVRLQESGPSQVKPAQTLSLTCAISGPSLTTYYLDWVRHTPGKPPEWLAQMTKDANAVHNPTVRSRLSITRDTSKSQVFLKLTGVTTEDTAVYYCVKGLIDFGPGLLVTVSSASTTPPKVYPLTSCCGDTSSSIVTLGCLVSSYMPEPVTVTWNSGALTSGVHTFPAILQSSGLYSLSSVVTVPASTSGAQTFICNVAHPASSTKVDKRVEPGCPDPCKHCRCPPPELPGGPSVFIFPPKPKDTLTISGTPEVTCVVVDVGQDDPEVQFSWFVDNVEVRTARTKPREEQFNSTFRVVSALPIQHQDWTGGKEFKCKVHNEGLPAPIVRTISRTKGQAREPQVYVLAPPQEELSKSTLSVTCLVTGFYPDYIAVEWQKNGQPESEDKYGTTTSQLDADGSYFLYSRLRVDKNSWQEGDTYACVVMHEALHNHYTQKSISKPPGK
light: QAVLTQPSSVSRSLGQTVSITCSGSSDQVGPGDYLNWFQLIPGSAPKTLIFAASSRIRGVPDRFSGSRSGNTATLTINSLQAEDEADYYCGSANSRNYVWGSGTRLTVLSQPKSAPSVTLFPPSKEELDTNKATVVCLISDFYPGSVNVVWKADGSTINQNVKTTQASKQSNSKYAASSYLTLTGSEWKSKSSYTCEVTHEGSTVTKTVKPSECS
B3: Mutation 1-7 (antibody)
heavy: B2 heavy with P27F, L29V, A55G, N60Q, K97R, L99I
light: B2 light with Q28N, P31F, A52G, I57L, A93G, W100F
B4: Mutation 1-15 (antibody)
heavy: B2 heavy with P27F, L29V, L34I, A55G, V63L, K97R
light: B2 light with Q28N, P31F, L35V, A52G, S54T, W100F
B5: Mutation 1-10 (antibody, V domains shown)
VH: B1 VH with I34L, Q60N, I99V
VL: QAVLTQPSSVSRSLGQTVSITCSGSSDQVGFGDYLNWFQLIPGSAPKTLIFGASSRLRGVPDRFSGSRSGNTATLTINSLQAEDEADYYCGSANSRNYVFGSGTRLTVLS
B6: Mutation 1-13 (antibody)
heavy: B2 heavy with P27F, A55G, V63I, K97R, L99I
light: B2 light with P31F, A52G, S54Y, I57L, A93P, W100F
B7: Mutation 1-1 (antibody)
heavy: B2 heavy with P27F, L29I, A55G, V63I, K97R, L99I
light: B2 light with P31F, A52G, S54T, I57L, A93P, W100F
B8: Mutation 1-27 (antibody)
heavy: B2 heavy with P27F, L29I, L34I, A55G, V63L, K97R
light: B2 light with Q28N, P31F, L35V, A52G, W100F
B9: Mutation 1-37 (antibody)
heavy: B2 heavy with P27F, L29I, A55G, V63I, K97R, L99I
light: B2 light with P31F, A52G, S54T, I57L, W100F
B10: Mutation 1-25 (antibody)
heavy: B2 heavy with P27F, L29V, A55G, V63I, K97R, L99I
light: B2 light with P31F, A52G, I57L, A93P, W100F
B11: Mutation 1-34 (antibody, V domains shown)
VH: B1 VH with I29V, I34L, Q60N, I99V
VL: B5 VL with S54Y
B12: Mutation 1-3 (antibody)
heavy: B2 heavy with P27F, L34I, A55G, V63L, K97R
light: B2 light with Q28N, P31F, L35V, A52G, S54Y, W100F
B13: Mutation 1-22 (antibody, V domains shown)
VH: B1 VH with I29L, I34L, Q60N, I99V
VL: B5 VL with S54Y
B14: Mutation 1-31 (antibody)
heavy: B2 heavy with P27F, A55G, N60Q, K97R, L99I
light: B2 light with Q28N, P31F, A52G, S54T, I57L, A93G, W100F

What follows are binders tested against T1, Recombinant NT antigen (N-terminal …) (assay: indirect ELISA, KD calculated from half-max OD at 4 coating concentrations).
Description: Recombinant NT antigen was diluted with coating solution to 1 μg/ml a microplate overnight at 4° C.; which was washed twice with washing solution and patted dry on the next day; with addition of blocking solution (20% BSA+80% PBS) at 120 μL per well at 37° C. for 1 h and patted dry; added the diluted NT monoclonal antibody, 100 μL/well at 37° C. for 30 min (partial supernatant for 1 h); washed 5 times with washing solution and patted dry; added rabbit anti-goat IgG-HRP […] per well at 37° C. for 30 min; washed 5 times with washing solution and patted dry; added color developing solution A (50 μL/well), added color developing solution B (50 μL/well) for 10 min; added stop solution, 50 μL/well; followed by reading the OD value at 450 nm (reference 630 nm) on the microplate reader.
Data from the enzyme immunoassay indirect method were analyzed in the same way as the activity identification, with four gradients of 3 μg/ml, 1.5 μg/ml, 0.75 μg/ml and 0.375 μg/ml for coating; the antibody was diluted from 1000 ng/ml by 2 times to 0.977 ng/ml for loading sample. OD values corresponding to different antibody concentrations at different coating concentrations were obtained. Under the same coating concentration, data were plotted logarithmically with the antibody concentration as the abscissa and the OD value as the ordinate.

Binder	Kd [nM]
B1	1.73
B2	22.6
B3	1.53
B4	1.76
B5	3.2
B6	2.09
B7	2.51
B8	0.855
B9	1.57
B10	2.16
B11	3.12
B12	1.52
B13	2.07
B14	1.84
